Laboratory results: publication PMC12075633
“And” between values parts separate entries of the source, which are not always exact repeats. Equal entries are not always repeated.

Key:
[1] = target: ECF module (EcfA_K122C, EcfA', EcfT) of the C-sensor, cysteine-less background, fluorophore-labelled (Lactobacillus delbrueckii); assay: FRET or BRET; single-molecule FRET, TIRF; labelled complex reconstituted in liposomes (E. coli polar lipids:PC:DOPE-biotin, protein to lipid 1:10.000) immobilised by biotin-neutravidin; 50 mM KPi pH 7.5, 150 mM NaCl; apo, also with Mg-AMP-PNP, Mg-ADP or 10 µM vitamin B12 alone; 90 s recordings, 200 ms frames
[2] = target: ECF module (EcfA_K122C, EcfA', EcfT) of the C-sensor, cysteine-less background, fluorophore-labelled (Lactobacillus delbrueckii); assay: FRET or BRET; single-molecule FRET, TIRF; labelled complex in immobilised liposomes (protein to lipid 1:10.000) with 10 mM Mg-ATP outside (or on both sides), with or without 10 µM vitamin B12 in the lumen; 50 mM KPi pH 7.5, 150 mM NaCl; 90 s recordings, 200 ms frames

percent of recorded traces with a dissociation (apo and AMP-PNP conditions) [1]: 1%
half-life to the first dissociation event after ATP addition (ATPout + B12in) [2]: 7 s
half-life to the first dissociation event after ATP addition (ATPout) [2]: 10 s
mean dwell time of the associated state (10 mM Mg-ATP outside; with or without vitamin B12, not told which) [2]: 7.9 s and 8.7 s
mean dwell time of the dissociated state (10 mM Mg-ATP outside, with and without vitamin B12) [2]: 20 s
percent of dynamic traces (association/dissociation transitions), 10 mM Mg-ATP outside [2]: 22.1%
percent of dynamic traces (association/dissociation transitions), ATP outside and 10 µM vitamin B12 in the lumen [2]: 18.7%
percent of dynamic traces (association/dissociation transitions), Mg-ATP on both sides of the membrane [2]: 13.2%
percent of traces static at the low-FRET value 0.08 (dissociated), 10 mM Mg-ATP outside [2]: 19.6%
Substance: CbrT_A182C (S-component of the C-sensor, cysteine-less background, fluorophore-labelled) (natural protein)
